Test results: IntAct's records for PubMed 21115843

Biological target: notc1_mouse Notch1 (UniProt Q01705)

effect of a mutation on the interaction: disrupting interaction
Substance: Presenilin-1 (Homo sapiens) (from UniProt P49768) D385A
